Assay results reported in US20220411483A1 (Chugai, published 2022).
Substitutions are numbered along the chain they refer to.

T1: FcgRIIb (human, UniProt P31994 43-217)
T1 construct: extracellular domain; also called FcγRIIb
T1 sequence (looked up): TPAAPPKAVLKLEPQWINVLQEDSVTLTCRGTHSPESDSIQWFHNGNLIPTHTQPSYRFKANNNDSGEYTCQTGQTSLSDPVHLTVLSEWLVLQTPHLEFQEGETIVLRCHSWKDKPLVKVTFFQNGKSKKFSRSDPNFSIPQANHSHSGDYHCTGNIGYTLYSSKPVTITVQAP

T2: FcgRIIaR (human, UniProt P12318 34-217)
T2 construct: extracellular domain; also called FcγRIIa R type; FcγRIIa (R type)
T2 sequence (looked up): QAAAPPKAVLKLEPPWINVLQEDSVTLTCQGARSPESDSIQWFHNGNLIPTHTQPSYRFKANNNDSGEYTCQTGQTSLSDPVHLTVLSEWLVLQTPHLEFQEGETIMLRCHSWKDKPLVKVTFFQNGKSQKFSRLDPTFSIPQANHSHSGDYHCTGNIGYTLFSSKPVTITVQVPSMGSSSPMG

T3: human FcγRIIa H type extracellular domain with C-terminal His tag (human, UniProt P12318 34-217)
T3 construct: extracellular domain; also called FcgRIIaH
T3 sequence (looked up): T2 sequence (looked up) with R134H

T4: human FcγRIIa R type extracellular domain with C-terminal His tag (human, UniProt P12318 34-217)
T4 construct: extracellular domain; also called FcgRIIaR
T4 sequence (looked up): T2 sequence (looked up)

T5: human FcγRIIb extracellular domain with C-terminal His tag (human, UniProt P31994 43-217)
T5 construct: extracellular domain; also called FcgRIIb
T5 sequence (looked up): T1 sequence (looked up)

T6: FcγRIIb extracellular domain with C-terminal His tag (human, UniProt P31994 43-217)
T6 construct: extracellular domain; also called FcgRIIb; not shown: His tag at the C terminus
T6 sequence (looked up): T1 sequence (looked up)

T7: FcγRIIa R type extracellular domain with C-terminal His tag (human, UniProt P12318 34-217)
T7 construct: extracellular domain; also called FcgRIIaR; not shown: His tag at the C terminus
T7 sequence (looked up): T2 sequence (looked up)

B1: IL6R-P556/IL6R-L (antibody, human IgG1, kappa)
heavy: QVQLQESGPGLVKPSETLSLTCAVSGHSISHDHAWSWVRQPPGEGLEWIGFISYSGITNYNPSLQGRVTISRDNSKNTLYLQMNSLRAEDTAVYYCARSLARTTAMDYWGEGTLVTVSSASTKGPSVFPLAPSSKSTSGGTAALGCLVKDYFPEPVTVSWNSGALTSGVHTFPAVLQSSGLYSLSSVVTVPSSSLGTQTYICNVNHKPSNTKVDKKVEPKSCDKTHTCPPCPAPDLLGDDSVFLFPPKPKDTLMISRTPEVTCVVVDVSDEDGEVKFNWYVDGVEVHNAKTKPREEQYNSTYRVVSVLTVLHQDWLNGKEYKCKVSNKALPAPIEKTISKAKGQPREPQVYTLPPSRDELTKNQVSLTCLVKGFYPSDIAVEWESNGQPENNYKTTPPVLDSDGSFFLYSKLTVDKSRWQQGNVFSCSVMHEALHNHYTQKSLSLSP
light: not shown
B2: IL6R-P587/IL6R-L (antibody, human IgG1, kappa)
heavy: B1 heavy with D239G, V266I, S269A, D270E
light: not shown
B3: IL6R-BP490/IL6R-L (antibody, human IgG1, kappa, name in EU numbering)
heavy: B1 heavy with D235E, V266I, S269A, D270E, A332R, K441E
light: not shown
notes: human IgG1
B4: IL6R-BP532/IL6R-L (antibody, human IgG1, kappa, name in EU numbering)
heavy: B1 heavy with V266I, D270E, Y298D, A332R, P398M, K441E
light: not shown
notes: human IgG1
B5: IL6R-BP552/IL6R-L (antibody, human IgG1, kappa, name in EU numbering)
heavy: B1 heavy with V266I, S269A, D270E, E274D, Y298D, A332R, K441E
light: not shown
notes: human IgG1
B6: IL6R-BP506/IL6R-L (antibody, human IgG1, kappa, name in EU numbering)
heavy: B1 heavy with V266I, S269A, D270E, E274P, Y298D, A332R, K441E
light: not shown
notes: human IgG1
B7: IL6R-BP507/IL6R-L (antibody, human IgG1, kappa, name in EU numbering)
heavy: B1 heavy with V266I, S269A, D270E, E274P, A332R, K441E
light: not shown
notes: human IgG1
B8: IL6R-BP537/IL6R-L (antibody, human IgG1)
heavy: B1 heavy with D235E, V266I, S269G, D270E, A332R, K441E
light: not shown
notes: human IgG1
B9: IL6R-BP561/IL6R-L (antibody, human IgG1, kappa, name in EU numbering)
heavy: B1 heavy with E274D, Y298D, A332R, K441E
light: not shown
notes: human IgG1
B10: IL6R-BP531/IL6R-L (antibody, human IgG1, kappa, name in EU numbering)
heavy: B1 heavy with V266I, S269G, D270E, Y298D, A332R, P398M, K441E
light: not shown
notes: human IgG1
B11: IL6R-BP553/IL6R-L (antibody, human IgG1, kappa, name in EU numbering)
heavy: B1 heavy with V266I, S269A, D270E, E274D, A332R, K441E
light: not shown
notes: human IgG1
B12: IL6R-BP534/IL6R-L (antibody, human IgG1, kappa, name in EU numbering)
heavy: B1 heavy with V266I, D270E, Y298D, A332R, P398L, K441E
light: not shown
notes: human IgG1
B13: IL6R-BP555/IL6R-L (antibody, human IgG1, kappa, name in EU numbering)
heavy: B1 heavy with D235E, V266I, S269A, D270E, E274D, Y298D, A332R, K441E
light: not shown
notes: human IgG1
B14: IL6R-BP535/IL6R-L (antibody, human IgG1, kappa, name in EU numbering)
heavy: B1 heavy with V266I, S269G, D270E, Y298D, A329G, A332R, P398M, K441E
light: not shown
notes: human IgG1

These binders were tested against T1, FcgRIIb (assay: SPR, amount bound per captured antibody).

Relative FcgRIIb-binding Activity [IL6R-G1d/IL6R-L=100] | Binder
294 | B1

Each binder was assayed against T2, FcgRIIaR (assay: SPR, amount bound per captured antibody).

Relative FcgRIIaR-binding Activity [IL6R-G1d/IL6R-L=100] | Binder
81.7 | B1

The binders below were run against T3, human FcγRIIa H type extracellular … (assay: SPR, KD of IL6R-G1d/IL6R-L divided by KD of variant).

Relative FcgRIIaH-binding Activity | Binder
0.044 | B2

These binders were tested against T8, human FcγRIa extracellular domain with C-terminal His tag (human, UniProt P12314 16-292) in the same assay as above.
T8 construct: Whole entry named; also called FcgRIa
T8 sequence (P12314 16-292): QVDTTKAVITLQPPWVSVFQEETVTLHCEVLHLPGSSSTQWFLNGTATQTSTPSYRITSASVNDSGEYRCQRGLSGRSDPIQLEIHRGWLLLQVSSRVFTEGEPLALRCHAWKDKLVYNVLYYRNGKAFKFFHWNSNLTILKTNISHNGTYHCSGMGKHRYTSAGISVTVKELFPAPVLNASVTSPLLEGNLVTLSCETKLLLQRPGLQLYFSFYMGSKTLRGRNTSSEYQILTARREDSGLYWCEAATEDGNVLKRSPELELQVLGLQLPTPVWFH

Relative FcgRIa-binding Activity | Binder
0.451 | B2

The binders below were run against T9, human FcγRIIIa V type extracellular domain with C-terminal His tag (human, UniProt P08637 17-208) in the same assay as above.
T9 construct: extracellular domain; also called FcgRIIIaV
T9 sequence (P08637 17-208 F176V): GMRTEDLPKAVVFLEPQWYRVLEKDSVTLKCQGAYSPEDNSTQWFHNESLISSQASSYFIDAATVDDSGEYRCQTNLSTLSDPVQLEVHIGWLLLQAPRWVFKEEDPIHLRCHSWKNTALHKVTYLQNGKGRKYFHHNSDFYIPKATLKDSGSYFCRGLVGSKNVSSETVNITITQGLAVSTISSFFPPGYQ

Relative FcgRIIIaV-binding Activity | Binder
0.012 | B2

The binders below were run against T4, human FcγRIIa R type extracellular … in the same assay as above.

Relative FcgRIIaR-binding Activity | Binder
0.92 | B2

These binders were tested against T5, human FcγRIIb extracellular domain with … in the same assay as above.

Relative FcgRIIb-binding Activity | Binder
75 | B2

These binders were tested against T10, human complement C1q (human, UniProt P02745 23-245; P02746 28-253; P02747 29-245) (assay: SPR, C1q bound per antibody captured on Protein L).
T10 construct: Bought (PROSPEC or Calbiochem); also called human C1q
T10 sequence (P02745 23-245 limits assumed, chain 1 of 3): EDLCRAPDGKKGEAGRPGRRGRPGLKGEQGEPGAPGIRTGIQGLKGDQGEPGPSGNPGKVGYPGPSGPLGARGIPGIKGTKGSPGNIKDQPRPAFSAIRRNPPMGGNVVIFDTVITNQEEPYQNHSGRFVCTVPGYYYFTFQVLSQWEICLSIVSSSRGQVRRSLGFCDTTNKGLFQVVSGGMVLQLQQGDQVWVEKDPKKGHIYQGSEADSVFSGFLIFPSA
T10 sequence (P02746 28-253 limits assumed, chain 2 of 3): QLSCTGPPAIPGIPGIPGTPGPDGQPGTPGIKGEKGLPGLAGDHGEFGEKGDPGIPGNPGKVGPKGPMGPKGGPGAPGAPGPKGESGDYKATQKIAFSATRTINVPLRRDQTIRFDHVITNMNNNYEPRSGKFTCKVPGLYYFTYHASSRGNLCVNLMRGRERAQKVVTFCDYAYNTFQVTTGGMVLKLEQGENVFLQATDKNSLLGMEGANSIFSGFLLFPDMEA
T10 sequence (P02747 29-245 limits assumed, chain 3 of 3): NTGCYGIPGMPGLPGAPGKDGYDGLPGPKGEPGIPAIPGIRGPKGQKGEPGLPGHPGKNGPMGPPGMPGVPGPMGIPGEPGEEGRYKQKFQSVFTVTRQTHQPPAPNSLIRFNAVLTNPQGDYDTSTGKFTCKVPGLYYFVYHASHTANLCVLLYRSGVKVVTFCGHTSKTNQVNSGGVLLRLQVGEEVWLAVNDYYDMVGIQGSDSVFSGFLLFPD
Procedure: The interaction between an antibody and human C1q was analyzed using Biacore T200 (GE Healthcare). HBS-EP+ (GE Healthcare) was used as the running buffer, and the measurement temperature was set at 25° C. Chips produced by immobilizing Protein L (ACTIGEN or BioVision) onto Series S sensor Chip CM4 (GE Healthcare) by amine coupling were used.
The antibodies of interest were captured onto these sensor chips, and allowed to interact with human complement C1q (PROSPEC or Calbiochem) diluted in the running buffer. The amount of antibody binding was determined, and comparisons were made among the antibodies. However, since the amount of C1q bound depends on the amount of captured antibodies, corrected values obtained by dividing the amount of C1q bound by the amount of each antibody captured were compared. Furthermore, by reaction with 10 mM glycine-HCl, pH 1.5, the antibodies captured onto the sensor chips were washed, and the sensor chips were recycled and reused.

Amount of C1q-binding when that for G1d is Defined as 100 [G1d=100] | Binder
33.5 | B1

What follows are binders tested against T11, FcγRIa extracellular domain with C-terminal His tag (human, UniProt P12314 16-292) (assay: SPR, antibody captured, FcgR analyte).
T11 construct: also called FcgRIa; CD64; not shown: His tag at the C terminus
T11 sequence (P12314 16-292): as the sequence (P12314 16-292) above

Kd [nM] | Binder
4.5 | B3
12 | B4
3.2 | B5
3.1 | B6
2.6 | B7
29 | B8
9.4 | B9
9.4 | B10
3.4 | B11
9.3 | B12
9.4 | B13
11 | B14

Each binder was assayed against T6, FcγRIIb extracellular domain with … (assay: SPR, antibody captured, FcgR analyte).

Kd [nM] | Binder
2.4 | B3
3.2 | B4
2.6 | B5
3.4 | B6
2.9 | B7
6.9 | B8
18 | B9
3.8 | B10
3.1 | B11
3 | B12
4.1 | B13
4 | B14

What follows are binders tested against T7, FcγRIIa R type extracellular domain … (assay: SPR, antibody captured, FcgR analyte).

Kd [nM] | Binder
110 | B3
94 | B4
97 | B5
120 | B6
100 | B7
270 | B8
510 | B9
120 | B10
86 | B11
91 | B12
160 | B13
92 | B14
